Measurements as given in patent US8227212B2, “Cell that expresses a sulfatase and a formylglycine generating enzyme” (Shire Human Genetic Therapies, Inc., priority 2003, dated 2012).

B1: murine FGE (SUMF1): murine FGE (SUMF1) gene, mouse FGE ortholog (SEQ ID NO:49) (nucleic acid, listed as Mus musculus)
DNA: ATGGTCCCCATTCCTGCTGGAGTATTCACAATGGGCACTGATGATCCTCAGATCAGGCAGGATGGAGAAGCCCCTGCCAGGAGAGTCACTGTTGATGGCTTTTACATGGACGCCTATGAAGTCAGCAATGCGGATTTTGAGAAGTTTGTGAACTCGACTGGCTATTTGACAGAGGCTGAGAAGTTTGGAGACTCTTTCGTCTTTGAAGGCATGTTGAGCGAGCAAGTGAAAACGCATATCCACCAGGCAGTTGCAGCTGCTCCATGGTGGTTGCCTGTCAAGGGAGCTAATTGGAGACACCCAGAGGGTCCGGACTCCAGTATTCTGCACAGGTCAAATCATCCGGTTCTCCATGTTTCCTGGAACGATGCTGTTGCCTACTGCACATGGGCGGGCAAGAGGTTGCCTACTGAGGCAGAGTGGGAATACAGCTGTAGAGGAGGCCTGCAGAACAGGCTTTTCCCCTGGGGCAACAAACTGCAGCCCAAAGGACAGCATTATGCCAACATCTGGCAGGGCAAGTTTCCTGTGAGCAACACTGGCGAGGATGGCTTCCAAGGAACTGCCCCCGTTGATGCCTTTCCTCCCAATGGCTATGGCTTATACAACATAGTGGGGAATGTGTGGGAGTGGACCTCAGACTGGTGGACTGTTCACCATTCTGTTGAGGAAACGTTCAACCCAAAGGGTCCCACTTCTGGGAAAGACCGAGTGAAGAAGGGTGGATCCTACATGTGCCATAAGTCCTATTGCTATAGGTACCGCTGTGCAGCTCGAAGCCAGAACACACCAGATAGCTCTGCATCCAACCTGGGATTCCGATGTGCAGCCGACCACCTGCCCACCGCAGACTGA
B2: Drosophila FGE (SUMF1): Drosophila FGE (SUMF1) gene, fruitfly FGE ortholog (SEQ ID NO:51) (nucleic acid)
DNA: ATGACAACAATTATATTAGTCCTCTTTATTTGGATAGTTTTATTCAATGACGTATCCAGCGACTGTGGCTGCCAAAAGCTCGACCGGAAGGCCCCGGATATGCCGTCCATTTCCGGACAAGTGTGCCAGCAACGAGCACAGGGTGCACACAGCCACTACCGGGATTACTATGGCGAACTGGAGCCAAATATTGCGGACATGTCACTGCTTCCGGGAGGCACGGTTTACATGGGTACTGACAAACCGCACTTTCCGGCCGACCGCGAGGCTCCGGAACGGCAGGTGAAGCTGAATGACTTCTACATCGACAAGTATGAGGTTTCCAACGAAGCCTTTGCGAAGTTTGTTCTGCACACTAACTACACCACGGAGGCTGAGCGATATGGCGACAGTTTTCTGTTTAAGAGCCTTTTGAGCCCATTGGAGCAGAAGAACCTAGAGGACTTCCGAGTGGCGAGCGCTGTCTGGTGGTACAAAGTGGCCGGCGTGAACTGGCGACATCCAAATGGCGTGGACAGCGATATAGACCACTTAGGCCGACACCCGGTAGTGCACGTATCGTGGCGCGACGCTGTGGAGTACTGTAAGTGGGCCGGCAAGCGGTTGCCCAGCGAGGCGGAGTGGGAGGCGGCTTGCAGGGGCGGCAAGGAGCGCAAACTGTTTCCCTGGGGCAACAAGCTGATGCCAAGGAATGAACATTGGCTGAACATCTGGCAGGGAGACTTTCCCGATGGCAACCTGGCTGAAGATGGGTTTGAGTACACCAGCCCCGTGGATGCCTTCCGACAGAATATTTACGACCTGCACAACATGGTGGGCAACGTCTGGGAGTGGACGGCAGATCTGTGGGACGTAAATGACGTTAGCGATAATCCAAATCGGGTCAAGAAGGGCGGTTCTTATCTGTGTCACAAGTCCTACTGCTACAGGTACAGGTGCGCGGCACGCTCGCAGAACACAGAAGACAGTTCAGCCGGTAACCTGGGTTTTCGGTGCGCCAAGAATGCGTGA
modifications: Drosophila melanogaster
B3: FGE-activated GALNS: N-Acetylgalactosamine 6-Sulfatase (lysosomal sulfatase) activated by FGE, for enzyme replacement therapy of Morquio disease MPS IVA (protein)
chain: APQPPNILLLLMDDMGWGDLGVYGEPSRETPNLDRMAAEGLLFPNFYSANPLCSPSRAALLTGRLPIRNGFYTTNAHARNAYTPQEIVGGIPDSEQLLPELLKKAGYVSKIVGKWHLGHRPQFHPLKHGFDEWFGSPNCHFGPYDNKARPNIPVYRDWEMVGRYYEEFPINLKTGEANLTQIYLQEALDFIKRQARHHPFFLYWAVDATHAPVYASKPFLGTSQRGRYGDAVREIDDSIGKILELLQDLHVADNTFVFFTSDNGAALISAPEQGGSNGPFLCGKQTTFEGGMREPALAWWPGHVTAGQVSHQLGSIMDLFTTSLALAGLTPPSDRAIDGLNLLPTLLQGRLMDRPIFYYRGDTLMAATLGQHKAHFWTWTNSWENFRQGIDFCPGQNVSGVTTHNLEDHTKLPLIFHLGRDPGERFPLSFASAEYQEALSRITSVVQQHQEALVPAQPQLNVCNWAVMNWAPPGCEKLGKCLTPPESIPKKCLWSH

Assays:
ARSA, ARSC and ARSE = test: Co-expression of FGE (SUMF1) and sulfatase cDNAs in cell lines, sulfatase activities; format: cell-based, human; details: co-transfection with ARSA, ARSC and ARSE cDNAs in various cell lines
Text: To test the effect of FGE (SUMF1) on additional sulfatase activities in normal cells we overexpressed ARSA (SEQ ID NO:14), ARSC (SEQ ID NO:18) and ARSE (SEQ ID NO:22) cDNAs in various cell lines with and without co-transfection of the FGE (SUMF1) cDNA and measured sulfatase activities.
To test for functional conservation of the FGE (SUMF1) gene during evolution we overexpressed ARSA, ARSC and ARSE cDNAs in various cell lines with and without co-transfection of the […] and measured sulfatase activities.

MKI mice = test: Pharmacodynamic study in MKI mice (GALNS deficient, Morquio Knock-In); format: in vivo; details: weekly IV 2 mg/kg over 16 weeks
Text: The primary cause of skeletal pathology in Morquio patients is keratan sulfate (KS) accumulation in epiphyseal disk (growth plate) chondrocytes due to deficiency of the lysosomal sulfatase, GALNS. The primary objective of in vivo research studies was to determine whether intravenously (IV) administered FGE-activated GALNS was able to penetrate chondrocytes of the growth plate as well as other appropriate cell types in normal mice.
Four-week-old MKI or wild-type mice were given weekly IV injections (n=8 per group) through 20 weeks of age. Each weekly injection consisted of either 2 mg/kg FGE-activated GALNS or vehicle control (no injection for wild-type mice). All mice were sacrificed for histological examination at 20 weeks of age and stained using the following methods: hematoxylin and eosin for cellular morphology, alcian blue for detection of GAGs.

[1] = Biodistribution study of IV FGE-activated GALNS in ICR (normal) mice; format: in vivo; details: single IV injection of 5 mg/kg, two hours after injection
Method: Four-week-old ICR (normal) mice were given a single IV injection of 5 mg/kg FGE-activated GALNS. Liver, femur (bone), heart, kidney and spleen were collected two hours after injection and prepared for histological examination. A monoclonal anti-human GALNS antibody was used to detect the presence of injected GALNS in the various tissues. […] Moreover, GALNS was readily observed in all tissues examined using a horseradish-peroxidase reporter system, […].

Molecule	activity of FGE homologs on overexpressed human sulfatases (ARSA, ARSC and ARSE)	chondrocytes in the calcification zone of the growth plate (MKI mice)	vacuolized chondrocytes of the hypertrophic and proliferating zones of the growth plate (MKI mice)	clearance of accumulated GAG (alcian blue staining) (MKI mice; soft tissues (liver, heart, kidney and spleen))	GALNS delivery to bone growth plate chondrocytes (FITC reporter system) [1]	presence of injected GALNS in tissues (monoclonal anti-human GALNS antibody) ([1]; liver, femur (bone), heart, kidney and spleen)
B1	active on all three human sulfatases	–	–	–	–	–
B2	less efficient	–	–	–	–	–
B3	–	reduction of vacuolization	unaffected	reduced or absent alcian blue staining	observed in all growth plate sections examined	detected in all tissues examined
